Laboratory results reported in US8986682B2, “Method to increase the absorption of unsaturated fatty acids by human infants” (Swedish Orphan Biovitrum AB (publ), priority 2010, dated 2015).
“And” between values parts separate entries of the source, which are not always exact repeats. Identical values can stand only once. Marks after values point to notes of the source that are not given here.

Tested on: preterm infants born before week 32 of gestational age
Experiment: Coefficient of fat absorption (CFA), fat balance of food and stool by gas chromatography, studies BVT.BSSL-020/-021
Format: in vivo, human
Conditions: PP
Method: Patients were randomized to infant formula/pasteurized breast milk supplemented with rhBSSL at a final concentration of 0.15 g/L, or to infant formula/pasteurized breast milk “supplemented” with sterile water for injection (as placebo) for the first 7 days. After a washout period of 2 days, the patient was “crossed over” to the other treatment regimen during a second 7-day treatment period. Collection of feces samples for CFA assessment were performed during the last 3 days (72 hours) of each treatment period.
The collection of feces for the determination of CFA was performed over a period corresponding to the fat, i.e., formula or milk, ingestion during 72 hours toward the end of each treatment period. Diapers supplied to each site were used for feces collection. During the two treatment periods, a carmine red tracer dye was given as a marker together with a meal (approximately at noon) on Day 4 and Day 13, respectively, and collection of stool commenced with the appearance of the first carmine red marker in the stool. The stool containing the first marker was collected and the date and time of the first stool collected was recorded on the CRF. At 72 hours following administration of the first red marker, the second carmine marker was given, and stool collection continued until the second carmine marker appeared. The stool containing the second marker was not collected, but the date and time of the appearance of the second marker was recorded on the CRF. Diapers were weighed before placement and after removal and the difference in weight was recorded on the CRF. The times of each collection and the elapsed duration of the entire collection period was also recorded on the CRF. The use of ointments for the treatment of skin irritation was prohibited during the stool collection period. Diapers were to be changed frequently during the collection period to keep the skin dry. Patients with skin rash severity leading to discontinuation of the stool collection were to be withdrawn from the study. Specific collection methods were provided in a separate laboratory manual. If applicable, vomit from the stool collection periods of both treatment periods was weighed. A small cloth/linen was weighed and placed under the head of each infant. When the cloth/linen was soiled with vomit, it was removed and re-weighed. If an additional cloth was used to remove vomit from the infant, that cloth was also weighed before and after use. The weight of vomit (total weight minus the weight of the cloth/linen) was recorded on the CRF. All other feed losses, e.g., formula or milk left in bottle, were measured and the amount accounted for in the calculation of the volume of formula consumed at each feeding.
Feces samples, the formula (study 020) and the milk aliquots (study 021) were analyzed by a central laboratory. Individual fatty acids, including the long-chain polyunsaturated fatty acids DHA and AA, were quantified in feces and feed by a gas chromatographic method following extraction by the Folch method. In both studies, the Omegawax 250 column (Supelco) was used for separation of the fatty acids. However, due to co-elution of DHA with nervonic acid (C24:1), which was only present in the breast milk, samples from patients of the per-protocol analysis set from study 021 were also analyzed using a SP-2380 column (Supelco) in order to quantify DHA for those samples from study 021. […] Total lipids were calculated as the sum of the individual fatty acids. (See Section 7.5.1). The same analytical principle was used to determine lipids in each of the batches of formula and aliquots of breast milk used in the study. […]

[1] = BVT.BSSL-020 (infant formula), 72-hour collection period
[2] = BVT.BSSL-021 (pasteurized breast milk)

B1: rhBSSL: recombinant human bile-salt-stimulated lipase, SEQ ID. NO. 1, expressed from recombinant CHO cells; used in both clinical trials (protein, listed as Homo sapiens)
chain: AKLGAVYTEGGFVEGVNKKLGLLGDSVDIFKGIPFAAPTKALENPQPHPGWQGTLKAKNFKKRCLQATITQDSTYGDEDCLYLNIWVPQGRKQVSRDLPVMIWIYGGAFLMGSGHGANFLNNYLYDGEEIATRGNVIVVTFNYRVGPLGFLSTGDANLPGNYGLRDQHMAIAWVKRNIAAFGGDPNNITLFGESAGGASVSLQTLSPYNKGLIRRAISQSGVALSPWVIQKNPLFWAKKVAEKVGCPVGDAARMAQCLKVTDPRALTLAYKVPLAGLEYPMLHYVGFVPVIDGDFIPADPINLYANAADIDYIAGTNNMDGHIFASIDMPAINKGNKKVTEEDFYKLVSEFTITKGLRGAKTTFDVYTESWAQDPSQENKKKTVVDFETDVLFLVPTEIALAQHRANAKSAKTYAYLFSHPSRMPVYPKWVGADHADDIQYVFGKPFATPTGYRPQDRTVSKAMIAYWTNFAKTGDPNMGDSAVPTHWEPYTTENSGYLEITKKMGSSSMKRSLRTNFLRYWTLTYLALPTVTDQEATPVPPTGDSEATPVPPTGDSETAPVPPTGDSGAPPVPPTGDSGAPPVPPTGDSGAPPVPPTGDSGAPPVPPTGDSGAPPVPPTGDSGAPPVPPTGDSGAPPVPPTGDAGPPPVPPTGDSGAPPVPPTGDSGAPPVTPTGDSETAPVPPTGDSGAPPVPPTGDSEAAPVPPTDDSKEAQMPAVIRF
- CFA (overall), LS Mean (BVT.BSSL-020 (infant formula)): 69.46%
- CFA (overall), LS Mean Difference (rhBSSL − Placebo) (BVT.BSSL-020 (infant formula)): 2.08%
- CFA (overall), Maximum (BVT.BSSL-020 (infant formula)): 89.0%
- CFA (overall), Mean (SD) (BVT.BSSL-020 (infant formula)): 69.55 (14.452) %
- CFA (overall), Median (BVT.BSSL-020 (infant formula)): 70.99%
- CFA (overall), Minimum (BVT.BSSL-020 (infant formula)): 36.8%
- CFA for C12:0 (BVT.BSSL-020 (infant formula)): 89.70%
- CFA for C12:0, Difference (rhBSSL − Placebo) (BVT.BSSL-020 (infant formula)): 1.18%
- CFA for C14:0 (BVT.BSSL-020 (infant formula)): 76.56%
- CFA for C14:0, Difference (rhBSSL − Placebo) (BVT.BSSL-020 (infant formula)): 3.19%
- CFA for C16:0 (BVT.BSSL-020 (infant formula)): 46.95%
- CFA for C16:0, Difference (rhBSSL − Placebo) (BVT.BSSL-020 (infant formula)): 0.45%
- CFA for C18:0 (BVT.BSSL-020 (infant formula)): 42.20%
- CFA for C18:0, Difference (rhBSSL − Placebo) (BVT.BSSL-020 (infant formula)): −1.10%
- CFA for C18:1 (BVT.BSSL-020 (infant formula)): 76.24%
- CFA for C18:1, Difference (rhBSSL − Placebo) (BVT.BSSL-020 (infant formula)): 2.37%
- CFA for C18:2 n-6 (BVT.BSSL-020 (infant formula)): 83.91%
- CFA for C18:2 n-6, Difference (rhBSSL − Placebo) (BVT.BSSL-020 (infant formula)): 4.99%
- CFA for C18:3 n-3 (BVT.BSSL-020 (infant formula)): 87.79%
- CFA for C18:3 n-3, Difference (rhBSSL − Placebo) (BVT.BSSL-020 (infant formula)): 4.42%
- CFA for C20:4 n-6 (AA) (BVT.BSSL-020 (infant formula)): 82.96%
- CFA for C20:4 n-6 (AA), Difference (rhBSSL − Placebo) (BVT.BSSL-020 (infant formula)): 7.14%
- CFA for C22:6 n-3 (DHA) (BVT.BSSL-020 (infant formula)): 81.15%
- CFA for C22:6 n-3 (DHA), Difference (rhBSSL − Placebo) (BVT.BSSL-020 (infant formula)): 6.85%
- Total Amount of Fat in Stool, Maximum [1]: 15.0 g
- Total Amount of Fat in Stool, Mean (SD) [1]: 8.53 g and 8.53 (3.416) g
- Total Amount of Fat in Stool, Median [1]: 8.63 g
- Total Amount of Fat in Stool, Minimum [1]: 3.2 g
- Coefficient of absorption of the sum of all LCPUFAs, LS mean (BVT.BSSL-020 Formula): 82.2%
- Coefficient of absorption of the sum of all LCPUFAs, LS mean difference (rhBSSL-Placebo) (BVT.BSSL-020 Formula): 7.01%
- Coefficient of absorption of the sum of all polyunsaturated fatty acids, LS mean (BVT.BSSL-020 Formula): 84.0%
- Coefficient of absorption of the sum of all polyunsaturated fatty acids, LS mean difference (rhBSSL-Placebo) (BVT.BSSL-020 Formula): 5.05%
- Coefficient of absorption of the sum of all saturated fatty acids, LS mean (BVT.BSSL-020 Formula): 61.4%
- Coefficient of absorption of the sum of all saturated fatty acids, LS mean difference (rhBSSL-Placebo) (BVT.BSSL-020 Formula): 0.08%
- Coefficient of absorption of the sum of all unsaturated fatty acids, LS mean (BVT.BSSL-020 Formula): 78.8%
- Coefficient of absorption of the sum of all unsaturated fatty acids, LS mean difference (rhBSSL-Placebo) (BVT.BSSL-020 Formula): 3.25%
- Coefficient of absorption of the sum of all LCPUFAs, LS mean (BVT.BSSL-020 and 021 Combined): 76.1%
- Coefficient of absorption of the sum of all LCPUFAs, LS mean difference (rhBSSL-Placebo) (BVT.BSSL-020 and 021 Combined): 7.33%
- Coefficient of absorption of the sum of all polyunsaturated fatty acids, LS mean (BVT.BSSL-020 and 021 Combined): 77.3%
- Coefficient of absorption of the sum of all polyunsaturated fatty acids, LS mean difference (rhBSSL-Placebo) (BVT.BSSL-020 and 021 Combined): 5.82%
- Coefficient of absorption of the sum of all saturated fatty acids, LS mean (BVT.BSSL-020 and 021 Combined): 63.8%
- Coefficient of absorption of the sum of all saturated fatty acids, LS mean difference (rhBSSL-Placebo) (BVT.BSSL-020 and 021 Combined): 2.25%
- Coefficient of absorption of the sum of all unsaturated fatty acids, LS mean (BVT.BSSL-020 and 021 Combined): 74.7%
- Coefficient of absorption of the sum of all unsaturated fatty acids, LS mean difference (rhBSSL-Placebo) (BVT.BSSL-020 and 021 Combined): 4.22%
- CFA (overall), LS Mean [2]: 68.56%
- CFA (overall), LS Mean Difference (rhBSSL − Placebo) [2]: 4.86%
- CFA (overall), Maximum [2]: 93.2%
- CFA (overall), Mean (SD) [2]: 68.46 (15.333) %
- CFA (overall), Median [2]: 75.41%
- CFA (overall), Minimum [2]: 31.2%
- CFA for C12:0 [2]: 87.94%
- CFA for C12:0, Difference (rhBSSL − Placebo) [2]: 3.50%
- CFA for C14:0 [2]: 75.49%
- CFA for C14:0, Difference (rhBSSL − Placebo) [2]: 5.94* %
- CFA for C16:0 [2]: 63.88%
- CFA for C16:0, Difference (rhBSSL − Placebo) [2]: 4.46%
- CFA for C16:1 [2]: 96.24%
- CFA for C16:1, Difference (rhBSSL − Placebo) [2]: 0.45%
- CFA for C18:0 [2]: 46.11%
- CFA for C18:0, Difference (rhBSSL − Placebo) [2]: 3.63%
- CFA for C18:1 [2]: 71.01%
- CFA for C18:1, Difference (rhBSSL − Placebo) [2]: 4.77%
- CFA for C18:2 n-6 [2]: 71.26%
- CFA for C18:2 n-6, Difference (rhBSSL − Placebo) [2]: 6.98* %
- CFA for C18:3 n-3 [2]: 64.39%
- CFA for C18:3 n-3, Difference (rhBSSL − Placebo) [2]: 2.04%
- CFA for C18:3 n-6 [2]: 63.94%
- CFA for C18:3 n-6, Difference (rhBSSL − Placebo) [2]: 5.82%
- CFA for C20:1 [2]: 52.09%
- CFA for C20:1, Difference (rhBSSL − Placebo) [2]: 8.53%
- CFA for C20:2 n-6 [2]: 53.09%
- CFA for C20:2 n-6, Difference (rhBSSL − Placebo) [2]: 8.37* %
- CFA for C20:3 n-6 (sum of C20:3 n-6 and C20:3 n-3) [2]: 67.39§ %
